Reference: paper PMC5892938, “SARNAclust: Semi-automatic detection of RNA protein binding motifs from immunoprecipitation data”
Positions count from the first letter of the chain named.

Columns and labels:
[1] = biological target: T1, GST-SBP-SLBP (stem-loop binding protein) (Homo sapiens, UniProt Q14493 1-270); assay: targeted RNA Bind-n-Seq; RBNS binding buffer: 25 mM Tris pH 7.5, 150 mM KCl, 3 mM MgCl2, 0.1% Tween, 0.5 mg/mL BSA, 1 mM DTT; 27 nM protein, 750 pM RNA pool; temperature not stated; high values mean tight binding; settings: protein: recombinant; tags: N-terminal GST and SBP (pGEX6P1-SBP)
Outline: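 The protein, carrying a GST-SBP tag, was produced in Rosetta(DE3) pLysS E. coli, purified on glutathione, and mixed at 27 nM with 750 pM of a designed RNA oligo pool made by T7 transcription in RBNS binding buffer. RNA that bound was reverse transcribed using a barcoded primer of 10 nucleotides, amplified by PCR and sequenced on a MiSeq with 200-cycle paired-end reads. FLASH joined the reads, HISAT2 aligned them, and they were collapsed by barcode before the binding signal was taken as the DEseq binary-logarithm fold change of read counts for each sequence.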

[2] = biological target: T1, GST-SBP-SLBP (stem-loop binding protein); assay: EMSA; 320 nM protein, 1 nM RNA, 1 mM Mg2+; EMSA: 10 mM HEPES pH 7.3, 20 mM KCl, 1 mM MgCl2, 20 mM DTT, 5% glycerol, 30 min, 4°C. RBNS: 25 mM Tris pH 7.5, 150 mM KCl, 0.1% Tween, 0.5 mg/mL BSA, 3 mM MgCl2, 1 mM DTT; settings: protein: recombinant; tags: N-terminal GST and SBP (pGEX6P1-SBP); label: 3' biotin; hairpin

B1: consensus (structured_RNA)
RNA: GGUCACGUCUCAAUCAACUCCCAAAGGCCCUUCUCAGGGCCACCCAUCAACAGCUCGCAGUCAAG
Work on B1 yielded a binding signal [1] of 3.69 ± 0.158 log2 fold change.

B2: consensus (structured_RNA)
RNA: B1 RNA with C29U, C33U, C35G, G38A
With B2 the binding signal [1] was 2.84 ± 0.154 log2 fold change.

B3: consensus (structured_RNA)
RNA: B1 RNA with C28U, C29U, C30U, G37A, G38A, G39A
Work on B3 yielded a binding signal [1] of 2.81 ± 0.12 log2 fold change.

B4: consensus (structured_RNA)
RNA: B1 RNA with C28U, C29U, C30U, C35U, G37A, G38A, G39A
B4 was tested, and the binding signal [1] was 2.59 ± 0.138 log2 fold change.

B5: consensus (structured_RNA)
RNA: B1 RNA with C28U, C29U, C33U
With B5 the binding signal [1] was 2.49 ± 0.153 log2 fold change.

B6: consensus (structured_RNA)
RNA: B1 RNA with C28U, C29U, C33U, C35U, G38A
B6 was tested, and the binding signal [1] was 2.54 ± 0.128 log2 fold change.

B7: consensus (structured_RNA)
RNA: B1 RNA with C28U, C30U, G37A
With B7 the binding signal [1] was 2.87 ± 0.126 log2 fold change.

B8: consensus (structured_RNA)
RNA: B1 RNA with C28U, C29U, C33U, C35A, G38A
B8 showed a binding signal [1] of 2.97 ± 0.121 log2 fold change.

B9: consensus (structured_RNA)
RNA: B1 RNA with C29U, C30U, C33U, C35U, G37A, G38A
With B9 the binding signal [1] was 2.93 ± 0.199 log2 fold change.

B10: consensus (structured_RNA)
RNA: B1 RNA with C28U, C29U, C30U, C33U, G37A, G38A
Binder B10 has a binding signal [1] of 2.7 ± 0.146 log2 fold change.

B11: consensus (structured_RNA)
RNA: B1 RNA with C29U, C30U, G37A
Binder B11 has a binding signal [1] of 2.96 ± 0.136 log2 fold change.

B12: consensus (structured_RNA)
RNA: B1 RNA with C29U, C30U, C33U, C35G, G37A, G38A
Binder B12 has a binding signal [1] of 2.83 ± 0.141 log2 fold change.

B13: consensus (structured_RNA)
RNA: B1 RNA with C35A
Binder B13 has a binding signal [1] of 3.65 ± 0.165 log2 fold change.

B14: consensus (structured_RNA)
RNA: B1 RNA with C28U, C30U, C35G, G37A, G39A
Work on B14 yielded a binding signal [1] of 2.75 ± 0.139 log2 fold change.

B15: consensus (structured_RNA)
RNA: B1 RNA with C28U, C29U, C35A
B15 showed a binding signal [1] of 2.42 ± 0.134 log2 fold change.

B16: consensus (structured_RNA)
RNA: B1 RNA with C28U, C29U, C33U, C35U, G38A, G39A
With B16 the binding signal [1] was 2.84 ± 0.113 log2 fold change.

B17: consensus (structured_RNA)
RNA: B1 RNA with C28U, C29U, C33U, G38A
Work on B17 yielded a binding signal [1] of 2.98 ± 0.121 log2 fold change.

B18: consensus (structured_RNA)
RNA: B1 RNA with C28U, C33U, C35G
B18 was tested, and the binding signal [1] was 2.63 ± 0.152 log2 fold change.

B19: consensus (structured_RNA)
RNA: B1 RNA with C28U, C29U, G38A
Binder B19 has a binding signal [1] of 2.76 ± 0.132 log2 fold change.

B20: consensus (structured_RNA)
RNA: B1 RNA with C30U, C33U, C35A, G37A
With B20 the binding signal [1] was 3.68 ± 0.122 log2 fold change.

B21: consensus (structured_RNA)
RNA: B1 RNA with C29U, C35U
With B21 the binding signal [1] was 2.44 ± 0.146 log2 fold change.

B22: consensus (structured_RNA)
RNA: B1 RNA with C29U, C30U, C33U, C35U, G37A
Work on B22 yielded a binding signal [1] of 2.7 ± 0.125 log2 fold change.

B23: consensus (structured_RNA)
RNA: B1 RNA with C28U, C29U, C30U, C33U, C35U, G37A, G38A, G39A
B23 showed a binding signal [1] of 2.51 ± 0.271 log2 fold change.

B24: consensus (structured_RNA)
RNA: B1 RNA with C29U, C30U, C35G, G37A, G38A
For B24, the binding signal [1] was 2.53 ± 0.134 log2 fold change.

B25: consensus (structured_RNA)
RNA: B1 RNA with C28U, C29U, C30U, C35A, G37A, G38A
Work on B25 yielded a binding signal [1] of 2.61 ± 0.133 log2 fold change.

B26: consensus (structured_RNA)
RNA: B1 RNA with C28U, C29U, C33U, C35U, G39A
B26 gave a binding signal [1] of 2.58 ± 0.123 log2 fold change.

B27: consensus (structured_RNA)
RNA: B1 RNA with C28U, C29U, G39A
Work on B27 yielded a binding signal [1] of 2.79 ± 0.125 log2 fold change.

B28: consensus (structured_RNA)
RNA: B1 RNA with C28U, C35U
B28 gave a binding signal [1] of 2.76 ± 0.147 log2 fold change.

B29: consensus (structured_RNA)
RNA: B1 RNA with C28U, C30U, C35U, G37A
In the case of B29, the binding signal [1] is reported as 2.73 ± 0.134 log2 fold change.

B30: consensus (structured_RNA)
RNA: B1 RNA with C28U, C29U, C33U, C35A
B30 gave a binding signal [1] of 2.44 ± 0.142 log2 fold change.

B31: consensus (structured_RNA)
RNA: B1 RNA with C28U, C35G, G39A
Binder B31 has a binding signal [1] of 2.83 ± 0.137 log2 fold change.

B32: consensus (structured_RNA)
RNA: B1 RNA with C29U, C35G, G38A
B32 gave a binding signal [1] of 2.5 ± 0.154 log2 fold change.

B33: consensus (structured_RNA)
RNA: B1 RNA with C28U, C33U, C35U
For B33, the binding signal [1] was 2.9 ± 0.135 log2 fold change.

B34: consensus (structured_RNA)
RNA: B1 RNA with C29U, C33U, C35U
In the case of B34, the binding signal [1] is reported as 2.74 ± 0.145 log2 fold change.

B35: consensus (structured_RNA)
RNA: B1 RNA with C28U, C29U, C35A, G39A
Work on B35 yielded a binding signal [1] of 2.79 ± 0.124 log2 fold change.

B36: consensus (structured_RNA)
RNA: B1 RNA with C28U, C29U, C35A, G38A
Binder B36 has a binding signal [1] of 2.77 ± 0.139 log2 fold change.

B37: consensus (structured_RNA)
RNA: B1 RNA with C28U, C30U, C33U, C35U, G37A
In the case of B37, the binding signal [1] is reported as 2.89 ± 0.126 log2 fold change.

B38: consensus (structured_RNA)
RNA: B1 RNA with C28U, C30U, C33U, G37A, G39A
B38 was tested, and the binding signal [1] was 3.61 ± 0.112 log2 fold change.

B39: consensus (structured_RNA)
RNA: B1 RNA with C28U, C29U, C33U, C35A, G39A
B39 gave a binding signal [1] of 2.99 ± 0.127 log2 fold change.

B40: consensus (structured_RNA)
RNA: B1 RNA with C28U, C29U, C30U, C33U, C35A, G37A, G38A
With B40 the binding signal [1] was 2.53 ± 0.247 log2 fold change.

B41: consensus (structured_RNA)
RNA: B1 RNA with C28U, C29U, C30U, C33U, C35A, G37A, G38A, G39A
In the case of B41, the binding signal [1] is reported as 2.88 ± 0.264 log2 fold change.

B42: consensus (structured_RNA)
RNA: B1 RNA with C28U, C29U, C35U, G38A, G39A
B42 showed a binding signal [1] of 2.63 ± 0.139 log2 fold change.

B43: consensus (structured_RNA)
RNA: B1 RNA with C29U, C30U, C35A, G37A
B43 showed a binding signal [1] of 2.99 ± 0.126 log2 fold change.

B44: consensus (structured_RNA)
RNA: B1 RNA with C29U, C30U, C35U, G37A
With B44 the binding signal [1] was 2.45 ± 0.137 log2 fold change.

B45: Consensus Loop Only A (CLA) (structured_RNA)
RNA: GGUCACGUCUCAAUCAACUCAUCCCCAGGAGUUUACUCCUGUUUAGUCAACAGCUCGCAGUCAAG
B45: no binding [2].

B46: Consensus Loop Only B (CLB) (structured_RNA)
RNA: B45 RNA with U22A, C24U, U43A, U44A, A45U, G46C
B46: no binding [2].
